Experimental data: patent US20250101098A1

How the values were obtained:
Test in all cases: flow cytometry, HEK 293 cells overexpressing the target
[1] = target: mouse nectin-4 protein expressed on the surface of HEK 293 cells (mouse) (UniProt Q8R007)
[2] = target: cynomolgus monkey nectin-4 protein expressed on the surface of HEK 293 cells (cynomolgus monkey)
[3] = target: rat nectin-4 protein expressed on the surface of HEK 293 cells (rat) (UniProt D3ZET1)
[4] = target: human nectin-4 protein expressed on the surface of cells (human) (UniProt Q96NY8)
Chain of human nectin-4 protein expressed on the surface of cells (human) (Q96NY8 32-510 limits assumed): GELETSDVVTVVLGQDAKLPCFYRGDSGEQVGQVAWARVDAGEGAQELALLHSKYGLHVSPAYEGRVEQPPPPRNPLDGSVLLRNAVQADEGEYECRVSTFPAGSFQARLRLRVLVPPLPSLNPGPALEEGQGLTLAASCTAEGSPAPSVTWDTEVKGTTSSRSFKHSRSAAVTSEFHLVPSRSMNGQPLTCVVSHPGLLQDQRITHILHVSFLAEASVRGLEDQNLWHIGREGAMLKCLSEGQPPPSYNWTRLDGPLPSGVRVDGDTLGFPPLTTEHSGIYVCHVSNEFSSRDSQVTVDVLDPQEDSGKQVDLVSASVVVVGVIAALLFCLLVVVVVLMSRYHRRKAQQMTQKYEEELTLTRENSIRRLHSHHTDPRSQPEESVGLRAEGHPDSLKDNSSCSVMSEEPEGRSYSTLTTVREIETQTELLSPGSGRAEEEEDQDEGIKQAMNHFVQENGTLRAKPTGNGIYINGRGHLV

Chain of mouse nectin-4 protein expressed on the surface of HEK 293 cells (mouse) (Q8R007 31-508): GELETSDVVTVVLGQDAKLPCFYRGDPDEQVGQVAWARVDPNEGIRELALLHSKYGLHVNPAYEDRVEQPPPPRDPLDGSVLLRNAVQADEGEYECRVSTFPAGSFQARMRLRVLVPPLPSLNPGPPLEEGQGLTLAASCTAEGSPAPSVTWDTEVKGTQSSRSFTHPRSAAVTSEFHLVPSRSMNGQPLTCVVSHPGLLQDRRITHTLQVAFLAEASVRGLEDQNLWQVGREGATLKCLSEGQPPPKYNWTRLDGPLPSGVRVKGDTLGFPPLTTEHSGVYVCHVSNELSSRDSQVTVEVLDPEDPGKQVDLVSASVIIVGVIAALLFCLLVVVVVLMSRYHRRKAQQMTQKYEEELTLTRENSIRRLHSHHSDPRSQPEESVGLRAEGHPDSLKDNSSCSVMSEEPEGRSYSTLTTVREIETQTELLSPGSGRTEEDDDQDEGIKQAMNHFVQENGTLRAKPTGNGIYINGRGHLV

Anti-FITC Isotype Control (antibody)
Flow data [1]: 163 | Flow data [2]: 189 | Flow data [3]: 196 | Flow data [4]: 132
